The assay deals with FUS-eGFP (C-terminally eGFP-tagged Fused in Sarcoma) (UniProt P35637). The assay is described as follows: FRET or BRET. On the technique in general: BRET reads energy transfer from a luciferase to a nearby fluorophore.

As to “FUS-eGFP (C-terminally eGFP-tagged Fused in Sarcoma) (from UniProt P35637 1-526) (natural protein)”, the apparent homoFRET efficiency (E Homo) stood at 0.7 and the steady-state fluorescence anisotropy in droplets (loss by homoFRET) worked out at 0.08.

The values are drawn from PMC11511825.
